Source: publication PMC5361195

B1: Flag-tagged wild-type A2 domain of coagulation factor VIII (pED-Flag-A2) [human] / calreticulin [not stated (endogenous in COS-1 or HEK293T cells)] (parent)
chain 1: KTWVHYIAAEEEDWDYAPLVLAPDDRSYKSQYLNNGPQRIGRKYKKVRFMAYTDETFKTREAIQHESGILGPLLYGEVGDTLLIIFKNQASRPYNIYPHGITDVRPLYSRRLPKGVKHLKDFPILPGEIFKYKWTVTVEDGPTKSDPRCLTRYYSSFVNMERDLASGLIGPLLICYKESVDQRGNQIMSDKRNVILFSVFDENRSWYLTENIQRFLPNPAGVQLEDPEFQASNIMHSINGYVFDSLQLSVCLHEVAYWYILSIGAQTDFLSVFFSGYTFKHKMVYEDTLTLFPFSGETVFMSMENPGLWILGCHNSDFRNRGMTALLKVSSC
chain 2: EPAVYFKEQFLDGDGWTSRWIESKHKSDFGKFVLSSGKFYGDEEKDKGLQTSQDARFYALSASFEPFSNKGQTLVVQFTVKHEQNIDCGGGYVKLFPNSLDQTDMHGDSEYNIMFGPDICGPGTKKVHVIFNYKGKNVLINKDIRCKDDEFTHLYTLIVRPDNTYEVKIDNSQVESGSLEDDWDFLPPKKIKDPDASKPEDWDERAKIDDPTDSKPEDWDKPEHIPDPDAKKPEDWDEEMDGEWEPPVIQNPEYKGEWKPRQIDNPDYKGTWIHPEIDNPEYSPDPSIYAYDNFGVLGLDLWQVKSGTIFDNFLITNDEAYAEEFGNETWGVTKAAEKQMKDKQDEEQRLKEEEEDKKRKEEEEAEDKEDDEDKDEDEEDEEDKEEDEEEDVPGQAKDEL

Variants of: B1
Assay: co-immunoprecipitation (anti-Flag IP, immunoblot densitometry)
Details: with calreticulin [not stated (endogenous in COS-1 or HEK293T cells)]; 36 h after transfection; n = 3; parent: 1; read off a plot

Row | Variant | ratio to parent
1 | chain 1 D201H | 2.2
2 | chain 1 D201V | 1.1

Continued, values first:

Row | ratio to parent | Variant
3 | 0.92 | chain 1 N203D
4 | 2.3 | chain 1 S205T
